Assay results taken from US8889130B2, “Treatment of osteoarthritis and pain” (Abbvie Inc., priority 2011, dated 2014).

T1: hIL-1α (Homo sapiens, UniProt P01583)
T1 sequence (P01583 113-271): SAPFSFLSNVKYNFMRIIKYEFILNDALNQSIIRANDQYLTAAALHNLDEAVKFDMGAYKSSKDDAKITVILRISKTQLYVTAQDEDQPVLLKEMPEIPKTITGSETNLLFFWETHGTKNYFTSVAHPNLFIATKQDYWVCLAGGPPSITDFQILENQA


Experiments:
hIL-1β = hIL-1β (Homo sapiens, UniProt P01584); test: Surface plasmon resonance (Biacore) binding kinetics and affinity to hIL-1β; conditions: antigen hIL-1β
Description: (§1) The kinetics of DVD-Ig molecules binding to rhIL1-α and rhIL1-β was determined by surface plasmon resonance-based measurements with a Biacore 3000 instrument (Biacore AB, Uppsala, Sweden) using HBS-EP (10 mM HEPES, pH 7.4, 150 mM NaCl, 3 mM EDTA, and 0.005% surfactant P20) at 25° C. All chemicals were obtained from Biacore AB (Uppsala, Sweden) or otherwise from a different source as described herein. Approximately, 5000 RU of goat anti-human IgG Fcγ fragment specific polyclonal antibody (Pierce Biotechnology Inc, Rockford, Ill.) diluted in 10 mM sodium acetate (pH 4.5) was directly immobilized across a CM5 research grade biosensor chip using a standard amine coupling kit according to manufacturer's instructions and procedures at […]. Unreacted moieties on the biosensor surface were blocked with ethanolamine. Modified carboxymethyl dextran surface in flowcell 2 and 4 was used as a reaction surface. Unmodified carboxymethyl dextran without goat anti-human IgG in flow cell 1 and 3 was used as the reference surface. For kinetic analysis, rate equations derived from the 1:1 Langmuir binding model were fitted simultaneously to association and dissociation phases of all ten injections (using global fit analysis) using the Bioevaluation 4.0.1 software. Purified DVD-Ig samples were diluted in HEPES-buffered saline for capture across goat anti-human IgG Fc specific reaction surfaces and injected over reaction matrices at a flow rate of […]. The association and dissociation rate constants, kon (M-1s-1) and koff (s-1) were determined under a continuous flow rate of […]. Rate constants were derived by making kinetic binding measurements at ten different antigen concentrations ranging from 1.25 to 1000 nM. The equilibrium dissociation constant (M) of the reaction between DVD-Ig molecule and rhIL1α/β was then calculated from the kinetic rate constants by the following formula: KD=koff/kon. Aliquots of rhIL1α/β samples were also simultaneously injected over a blank reference and reaction CM surface to record and subtract any nonspecific binding background to eliminate the majority of the refractive index change and injection noise. Surfaces were regenerated with two subsequent […] injections of 10 mM Glycine (pH 1.5) at a flow rate of […]. The anti-Fc antibody immobilized surfaces were completely regenerated and retained their full capture capacity over twelve cycles. The apparent stoichiometry of the captured DVD-Ig-rhIL1α/β complex was calculated under saturating binding conditions (steady-state equilibrium) using the following formula: […]

[1] = Size exclusion chromatography (SEC): physical homogeneity and in vitro stability; format: physicochemical; conditions: 0.2-0.4 mg/ml in PBS, SEC
Description: For measuring molecular weight (MW) of light and heavy chains of DVD-Ig binding protein, 10 μL of DVD-Ig molecule (0.8 μg/μL) was reduced by 1.0 M DTT solution (5 μL). A PLRP-S, 8μ, 4000 A, and 1×150 mm protein column (Michrom BioResource, Auburn, Mass.) was used to separate heavy and light chains of DVD-Ig molecule. Agilent HP1100 Capillary HPLC (Agilent Technologies Inc., Pala Alto, Calif.) was used with the mass spectrometer QSTAR (Applied Biosystems, Foster City, Calif.). The valco valve was set at 10 minutes to switch the flow from waste to MS for desalting sample. Buffer A was 0.02% TFA, 0.08% FA, 0.1% ACN and 99.8% HPLC-H2O. Buffer B contained 0.02% TFA, 0.08% FA, 0.1% HPLC-H2O, and 99.8% ACN. The HPLC flow rate was 50 μL/minute and the sample injection volume was […]. The temperature of the column oven was set at 60° C., and separation gradient was: 5% B for 5 minutes; 5% B to 65% B for 35 minutes; 65% B to 95% B for another 5 minutes, and 95% B to 5% B for 5 minutes. TOFMS scan was from 800 to 2500 amu, and cycles were 3600. To determine the MW of full length DVD-Ig binding protein, a Protein MicroTrap cartridge (Michrom BioResource, Auburn, Mass.) was used for desalting the sample. The HPLC gradient was: 5% B for 5 minutes; 5% B to 95% B in 1 minute; and from 95% B to 5% B in another 4 minutes. The QSTAR TOFMS scan was from 2000 to 3500 amu, and cycles were 899. All MS raw data were analyzed using the Analyst QS software (Applied Biosystems). For SEC analysis of the DVD-Ig binding protein, purified DVD-Ig binding protein and chimeric Abs, in PBS, were applied on a Superose 6 10/300 G2, 300×10 mm column (Amersham Bioscience, Piscataway, N.J.). An HPLC instrument, Model 10A (Shimadzu, Columbia, Md.) was used for SEC. All proteins were determined using UV detection at 280 nm and 214 nm. The elution was isocratic at a flow rate of 0.5 mL/minute. For stability study, samples in the concentration range of 0.2-0.4 mg/ml in PBS underwent 3 freeze-thaw cycles between −80° C. and 25° C., or were incubated at 4° C., 25° C., or 40° C., for 4 weeks and 8 weeks, followed by SEC analysis.
In order to determine the precise molecular weight of the DVD-Ig binding proteins, mass spectrometry was employed. […] To further study the physical properties of DVD-Ig binding protein in solution, size exclusion chromatography (SEC) was used to analyze each protein.
The physical stability of DVD-Ig was tested as follows. Purified antibodies in the concentration range of 0.2-0.4 mg/ml in PBS underwent 3 freeze-thaw cycles between −80° C. and 25° C., or were incubated at 4° C., 25° C., or 40° C., for 4 weeks and 8 weeks, followed by analysis using size exclusion chromatography (SEC) analysis (see Table 12).

hIL-1α = molecular target: T1, hIL-1α; test: Surface plasmon resonance (Biacore) binding kinetics and affinity to hIL-1α; conditions: antigen hIL-1α
Description: as §1

[2] = 3xFreeze-Thaw between −80° C. and 25° C.

hIL-1β, sequence (P01584 117-269): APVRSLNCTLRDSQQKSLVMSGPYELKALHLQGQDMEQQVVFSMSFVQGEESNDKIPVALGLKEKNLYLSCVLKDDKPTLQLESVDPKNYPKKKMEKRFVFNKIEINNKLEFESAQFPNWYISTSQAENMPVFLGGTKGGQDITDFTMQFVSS

Molecule | koff (hIL-1β) | kon (hIL-1β) | Ab (intact antibody) [1, 2] | Agg (aggregates) [1, 2] | Frgm (fragments) [1, 2] | Ab (intact antibody) ([1]; 4° C. @ 4 Wks) | Agg (aggregates) ([1]; 4° C. @ 4 Wks) | Frgm (fragments) ([1]; 4° C. @ 4 Wks) | Ab (intact antibody) ([1]; 4° C. @ 8 Wks) | Agg (aggregates) ([1]; 4° C. @ 8 Wks) | Frgm (fragments) ([1]; 4° C. @ 8 Wks) | Ab (intact antibody) ([1]; 25° C. @ 4 Wks) | Agg (aggregates) ([1]; 25° C. @ 4 Wks) | Frgm (fragments) ([1]; 25° C. @ 4 Wks) | Ab (intact antibody) ([1]; 25° C. @ 8 Wks) | Frgm (fragments) ([1]; 25° C. @ 8 Wks) | Ab (intact antibody) ([1]; 40° C. @ 4 Wks) | Agg (aggregates) ([1]; 40° C. @ 4 Wks) | Frgm (fragments) ([1]; 40° C. @ 4 Wks) | Ab (intact antibody) ([1]; 40° C. @ 8 Wks) | also measured
13F5.G5-Ch: murine-human chimeric form of 13F5.G5 (anti-hIL-1β) with human constant region (antibody, V domains shown) VH: QVQLQQSGAELVRPGSSVKISCKASGYAFSSYWMNWVKQRPGQGLEWIGQIYPGDGDTNYNGKFKGKATLTADKSSSTSYMQLSGLTSEDSAMYFCVRFPTGNDYYAMDYWGQGTSVTVSS VL: NIVLTQSPASLAVSLGQRATISCRASESVDSYGNSYMHWYQQKPGQPPKLLIYLASNLESGVPARFSGSGSRTDFTLTIDPVEADDAATYYCQQNNEDPFTFGSGTKLEIKR | 0.000654 s⁻¹ | 1.41e+06 M⁻¹ s⁻¹ | 87.0 percentage | 13.0 percentage | 0.0 percentage | 95.8 percentage | 4.2 percentage | 0.0 percentage | 97.8 percentage | 2.2 percentage | 0.0 percentage | 100.0 percentage | 0.0 percentage | 0.0 percentage | 97.5 percentage | 1.0 percentage | 78.1 percentage | 20.3 percentage | 1.6 percentage | 65.4 percentage | Agg (aggregates) ([1]; 25° C. @ 8 Wks): 1.4 percentage; Agg (aggregates) ([1]; 40° C. @ 8 Wks): 34.6 percentage; Frgm (fragments) ([1]; 40° C. @ 8 Wks): 0.0 percentage
13F5.G5: murine monoclonal antibody to human IL-1β; VH SEQ ID NO: 95, VL SEQ ID NO: 96 (antibody, listed as Mus musculus, V domains shown) VH: QVQLQQSGAELVRPGSSVKISCKASGYAFSSYWMNWVKQRPGQGLEWIGQIYPGDGDTNYNGKFKGKATLTADKSSSTSYMQLSGLTSEDSAMYFCVRFPTGNDYYAMDYWGQGTSVTVSS VL: NIVLTQSPASLAVSLGQRATISCRASESVDSYGNSYMHWYQQKPGQPPKLLIYLASNLESGVPARFSGSGSRTDFTLTIDPVEADDAATYYCQQNNEDPFTFGSGTKLEIKR | 0.000621 s⁻¹ | 2.13e+06 M⁻¹ s⁻¹ | – | – | – | – | – | – | – | – | – | – | – | – | – | – | – | – | – | – | –
3D12.E3-Ch: murine-human chimeric form of 3D12.E3 (anti-hIL-1α) with human constant region (antibody, V domains shown) VH: QIQLVQSGPELKKPGETVKISCKASGYTFRNYGMNWVKQAPGKDLKRMAWINTYTGESTYADDFKGRFAFSLETSASTAYLQINNLKNEDTATYFCARGIYYYGSSYAMDYWGQGTSVTVSS VL: NIQMTQTTSSLSASLGDRVTISCRASQDISNCLNWYQQKPDGTVKLLIYYTSRLHSGVPSRFSGSGSGTDYSLTISNLEQEDIATYFCQQGKTLPYAFGGGTKLEINR | – | – | 98.28 percentage | 1.72 percentage | 0.00 percentage | 99.15 percentage | 0.85 percentage | 0.00 percentage | 90.33 percentage | 5.35 percentage | 4.32 percentage | 98.71 percentage | 1.29 percentage | 0.00 percentage | 60.55 percentage | 38.34 percentage | 98.35 percentage | 1.65 percentage | 0.00 percentage | 81.47 percentage | koff (hIL-1α): 0.000552 s⁻¹; kon (hIL-1α): 412000 M⁻¹ s⁻¹; Agg (aggregates) ([1]; 40° C. @ 8 Wks): 4.74 percentage; Frgm (fragments) ([1]; 40° C. @ 8 Wks): 13.79 percentage
3D12.E3: murine monoclonal antibody to human IL-1α; VH SEQ ID NO: 89, VL SEQ ID NO: 90 (antibody, listed as Mus musculus, V domains shown) VH: QIQLVQSGPELKKPGETVKISCKASGYTFRNYGMNWVKQAPGKDLKRMAWINTYTGESTYADDFKGRFAFSLETSASTAYLQINNLKNEDTATYFCARGIYYYGSSYAMDYWGQGTSVTVSS VL: NIQMTQTTSSLSASLGDRVTISCRASQDISNCLNWYQQKPDGTVKLLIYYTSRLHSGVPSRFSGSGSGTDYSLTISNLEQEDIATYFCQQGKTLPYAFGGGTKLEINR | – | – | – | – | – | – | – | – | – | – | – | – | – | – | – | – | – | – | – | – | koff (hIL-1α): 0.000713 s⁻¹; kon (hIL-1α): 643000 M⁻¹ s⁻¹
